Tests used:
[1] = target: T1, Recombinant yeast Rnr1 protein (large subunit of ribonucleotide reductase) (yeast (Saccharomyces cerevisiae), UniProt P21524 1-888); test: BIAcore SPR, BIAevaluation software, lower curves of FIG. 12A; kinetic fit (BIAevaluation), lower curves of FIG. 12A
T1 construct: It is in monomer/dimer/tetramer equilibrium depending on dTTP; also called yeast R1 protein
T1 sequence (looked up): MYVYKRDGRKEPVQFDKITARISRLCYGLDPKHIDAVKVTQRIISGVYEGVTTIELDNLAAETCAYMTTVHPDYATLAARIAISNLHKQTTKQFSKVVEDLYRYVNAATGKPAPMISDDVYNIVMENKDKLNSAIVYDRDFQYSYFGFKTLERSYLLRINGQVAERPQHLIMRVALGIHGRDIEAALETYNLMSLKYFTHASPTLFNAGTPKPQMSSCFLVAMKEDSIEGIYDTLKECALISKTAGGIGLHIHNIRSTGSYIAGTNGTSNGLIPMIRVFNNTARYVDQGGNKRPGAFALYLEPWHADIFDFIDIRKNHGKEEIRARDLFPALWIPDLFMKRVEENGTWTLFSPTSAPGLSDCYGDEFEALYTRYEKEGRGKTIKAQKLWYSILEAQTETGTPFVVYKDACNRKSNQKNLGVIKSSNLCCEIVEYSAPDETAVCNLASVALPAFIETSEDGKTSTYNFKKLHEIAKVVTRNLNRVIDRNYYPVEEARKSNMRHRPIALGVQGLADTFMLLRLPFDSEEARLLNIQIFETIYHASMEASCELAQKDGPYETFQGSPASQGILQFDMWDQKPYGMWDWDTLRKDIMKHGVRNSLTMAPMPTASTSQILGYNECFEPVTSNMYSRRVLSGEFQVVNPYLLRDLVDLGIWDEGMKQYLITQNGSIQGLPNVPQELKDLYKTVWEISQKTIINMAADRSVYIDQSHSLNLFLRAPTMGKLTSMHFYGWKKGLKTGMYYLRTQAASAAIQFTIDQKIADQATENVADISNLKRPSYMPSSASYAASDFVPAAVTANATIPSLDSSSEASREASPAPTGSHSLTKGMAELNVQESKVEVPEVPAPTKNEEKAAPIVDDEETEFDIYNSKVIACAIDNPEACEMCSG
Procedure: In this figure, the bulk effect response of around 60 RU has been subtracted.
BIAcore biosensor analysis. The interaction between Sml1p and either yeast Rnr1p or mouse R1 protein was studied by biosensor analysis using the BIAcore method (Biacore AB). The Sml1 protein was prepared in 10 mM sodium acetate, pH 5.2, at a concentration of 0.44 mg/ml; it was then immobilized on the dextran layer of the sensor chip as described previously for the mouse R2 protein (17). The ligand proteins were equilibrated with running buffer (10 mM Hepes-KOH, pH 7.4, 200 mM potassium acetate, 1 mM EDTA, 5 mM magnesium acetate and 0.05% Surfactant P20 (BIAcore). The interactions were studied at a constant temperature of 22° C. and a constant flow of 5 μl/min. Kinetics for the interaction of Sml1p with yeast Rnr1p was determined by allowing the immobilized Sml1p to interact with increasing concentrations of Rnr1p (18). The resonance unit (RU) is proportional to the mass, and 1 RU corresponds to a surface concentration of 1 pg of protein/mm² of the 100 nm thick dextran layer (19).
In control experiments, where the same series of Rnr1p solutions passed a sensor chip without immobilized Sml1p, a "bulk effect" gave a response of only about 60 RU. […] Calculating the equilibrium dissociation constant from these rate constants gave a K_0 of about 0.25 µM, which is close to the directly determined K_0.

yeast RNR = target: T2, yeast RNR (Saccharomyces cerevisiae, UniProt P21524); test: in vitro yeast ribonucleotide reductase CDP reduction assay; type: biochemical
T2 construct: made in house; host or cells: E. coli BL21 (DE3), pET3a
T2 sequence (P21524 1-888): T1 sequence (looked up)
Procedure: FIG. 9 Inhibition of yeast RNR by Sml1p. A series of tubes containing yeast RNR ([…]) were incubated at 30° C. for 30 min in a final volume of 50 μl: 25 nmol of [^3H]CDP (specific activity 37000 cpm/nmol), 2 μmol of Tris-HCl, pH 7.6, 0.125 μmol of ATP, 0.32 μmol of MgCl^2, 0.5 μmol of dithiothreitol, 5 μmol of KCl and 1 nmol of FeCl3. In addition, the tubes contained increasing amounts of Sml1p. After incubation, the samples were processed as described earlier to obtain the amount of dCDP formed (22).
FIG. 10 Inhibition of yeast RNR by nonapeptides corresponding to the C terminal ends of Sml1p, Rnr2p or Rnr4p. […] 9 in the presence of increasing amounts of nonapeptide. Sml1 peptide, ã; Rnr2 peptide, o; Rnr4 peptide, x.
Inhibition of yeast ribonucleotide reductase by the Sml1 protein. Recombinant yeast ribonucleotide reductase was assayed for activity using a CDP reduction assay, with ATP as a positive effector in the presence of increasing amounts of Sml1 protein (FIG. 9). A molar ratio of 1:1 between Rnr1p monomer (MW 100000) and Sml1p (MW 11800) gave about 50% inhibition.
Inhibition of yeast ribonucleotide reductase by nonapeptides corresponding to the C-terminal ends of Sml1p, Rnr2p or Rnr4p. […] Since such peptides are known to inhibit RNR activity by binding to the R1 protein and preventing R1/R2 interaction, we wanted to study the influence of a C-terminal nonapeptide of Sml1p on yeast RNR activity.

B1: Recombinant yeast Sml1 protein (other)
chain: MQNSQDYFYAQNRCQQQQAPSTLRTVTMAEFRRVPLPPMAEVPMLSTQNSMGSSASASASSLEMWEKDLEERLNSIDHDMNNNKFGSGELKSMFNQGKVEEMDF
notes: Immobilized on the BIAcore chip in the biosensor experiments; also called YML058W product
- koff [1]: 0.04 s⁻¹
- kon [1]: ~153000 M⁻¹ s⁻¹

B2: Sml1p: 104 amino acid yeast protein encoded by YML058w (SML1) that binds Rnr1 and inhibits ribonucleotide reductase; recombinant, expressed in E. coli (protein)
chain: B1 chain
- efficiency in inhibiting yeast RNR activity relative to its C terminal nonapeptide, on a molar basis (yeast RNR): about 200 times
- type of inhibition versus Rnr2p/Rnr4p heterodimer (yeast RNR; Rnr2p/Rnr4p 1 to 32 μg, Rnr1p 2 μg, Sml1p 0, 0.2 and 2 μg): noncompetitive inhibition
- inhibition of yeast RNR (yeast RNR; molar ratio of 1:1 between Rnr1p monomer and Sml1p, CDP reduction, ATP as positive effector): about 50%

Source: patent publication US7125658B2, “Small protein that interacts with a ribonucleotide reductase subunit and uses thereof” (The Trustees of Columbia University in the City of New York, priority 1998, dated 2006)
